The source of these data is patent publication US20250197855A1 (ALNYLAM PHARMACEUTICALS, published 2025).

Experiment [1] addresses T1, Aβ in APPPS1-21 mouse brain (from the human APP transgene bearing the Swedish mutation) (human (transgene in mouse), UniProt P05067 672-713).
T1 construct: also called methoxy-X04+ Aβ plaque
The experiment can be described thus: proximity ligation assay (PLA) on APPPS1-21 mouse brain sections.

Experiment [2] has as its target T2, C1q (mouse, in APPPS1-21 and WT mouse brain cortex sections) (mouse, UniProt P98086 23-245; P14106 26-253; Q02105 30-246).
T2 construct: Endogenous tissue protein detected with mouse anti-C1q (HM1096BT, Hycult)
As to the kind of experiment: proximity ligation assay (Duolink PLA) on brain cortex sections of 16 weeks old APPPS1-21 mice. Here is the method: Protein-protein binding ex vivo was performed by Duolink® PLA kit (DUO92101 SIGMA).
PLA signal was detected by Duolink® PLA kit according to manufacturer's protocol. Leica confocal microscope (SP8, Leica, Germany) equipped with a 100× oil objective (NA 1.4) were used for image. 6 fields per each sample were recorded, 3D reconstructions and the number of PLA signals per volume were performed using LAS-X software package (Leica, v1.2, Germany).
APPPS1-21 mice were treated with the liver-specific C5 siRNA AD-61679.

T1 sequence (P05067 672-713 limits assumed, change not shown): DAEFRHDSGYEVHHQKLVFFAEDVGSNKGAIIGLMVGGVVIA
T2 sequence (P98086 23-245 limits assumed, chain 1 of 3): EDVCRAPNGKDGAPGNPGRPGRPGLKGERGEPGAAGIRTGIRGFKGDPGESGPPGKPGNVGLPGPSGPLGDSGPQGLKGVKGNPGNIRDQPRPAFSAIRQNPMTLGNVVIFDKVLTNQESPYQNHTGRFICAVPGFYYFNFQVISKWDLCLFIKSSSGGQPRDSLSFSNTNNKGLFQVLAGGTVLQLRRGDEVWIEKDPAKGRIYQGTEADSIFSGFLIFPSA
T2 sequence (P14106 26-253 limits assumed, chain 2 of 3): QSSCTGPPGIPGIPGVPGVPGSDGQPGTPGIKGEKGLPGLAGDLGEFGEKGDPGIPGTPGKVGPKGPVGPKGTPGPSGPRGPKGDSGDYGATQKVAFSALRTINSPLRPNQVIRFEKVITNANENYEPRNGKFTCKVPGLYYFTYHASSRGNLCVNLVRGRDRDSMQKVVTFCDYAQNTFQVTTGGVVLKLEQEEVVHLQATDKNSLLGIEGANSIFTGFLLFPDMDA
T2 sequence (Q02105 30-246 limits assumed, chain 3 of 3): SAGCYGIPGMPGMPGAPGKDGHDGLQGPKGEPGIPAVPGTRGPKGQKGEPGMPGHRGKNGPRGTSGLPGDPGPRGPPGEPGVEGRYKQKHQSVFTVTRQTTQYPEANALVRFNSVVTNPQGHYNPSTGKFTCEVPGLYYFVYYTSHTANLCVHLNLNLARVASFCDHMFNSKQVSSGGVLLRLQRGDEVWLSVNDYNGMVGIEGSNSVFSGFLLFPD

B1: apolipoprotein E (mouse, in APPPS1-21 and WT mouse brain cortex sections) (other, UniProt P08226 19-311, looked up)
chain: EGEPEVTDQLEWQSNQPWEQALNRFWDYLRWVQTLSDQVQEELQSSQVTQELTALMEDTMTEVKAYKKELEEQLGPVAEETRARLGKEVQAAQARLGADMEDLRNRLGQYRNEVHTMLGQSTEEIRARLSTHLRKMRKRLMRDAEDLQKRLAVYKAGAREGAERGVSAIRERLGPLVEQGRQRTANLGAGAAQPLRDRAQAFGDRIRGRLEEVGNQARDRLEEVREHMEEVRSKMEEQTQQIRLQAEIFQARLKGWFEPIVEDMHRQWANLMEKIQASVATNPIITPVAQENQ
notes: Detected with rabbit anti-mouse ApoE (ab183597); also called ApoE
As for B1, the binding result in experiment [1] and in experiment [2] was “binds” in each case.
